# Reference: IntAct's records for PubMed 18976803
# B1: Protein LDB19 (Saccharomyces cerevisiae), Q12502 (parent)
# chain: MAFSRLTSTHQSNHNGYSNSNKKGQSLPLTLSIDVESPPCVLYGSAMESSGAVLSGLFTVTVVDPYSSAEDKSLKNTESNVSTTSKSLKRKSTFGSALSSRLSSLSASTSNISPSTSSTSISHSPTPANLRIMAGYTKITITSVTLSLVQKIHFHKPFVPNISSMQTCMNCKTKITNMKSWEIQSNTQDLSVGSHSYPFSYLIPGSVPCSSSLGATAETQVKYELIAVVTYIDPHRNSFSSGHSTPRKEGSSSKKRLLQLAMPIAVTRSIPRGPDKNSLRVFPPTELTAAAVLPNVVYPKSTFPLEMKLDGVSSGDRRWRMRKLSWRIEETTRVKAHACPVHKHELRQLEEQVKIKESEKSKKPRSHIKRYGELGPQIRVAVNSLENMPSQRLPGEPGREQAPNSSGPASTGNVGLDDENPVNEDEEDQPGSEFIHPSDDALRQELLMQQQRARQQQLQQELKNNSSLFTEEVRIISKGEMKSGWKTDFDNNGKIELVTEIDCMGLNSGVSNPVMHASTLQTPSTGNKKPSINVACDIQDPNLGLYVSHILAVEIVVAEETLQYANGQPIRKPNSKNKKETNNNTMNVHNPDQRLAELSPIFANRNTPKVRRMGPEDITPVNSNKSNHSTNKEKASNGASNSNIVSVPTGAARVLRMQFRLTVTERSGLGISWDEEVPPIYQDVELLSPPCYELSINNGIKNKLYSTMSTPVRSEDDFVGGSDEDIGNYESQGLEPGPNVQEVTITQNKLTIPPTAHHYQPASSSQRSLTTVQSPPLESVVSVQGSVPFRGHVLTPHSTRDIRIQNFSDFLDSNRITQ
# Variants of: B1
# Details: with rsp5_yeast RSP5, P39940
# Chain of rsp5_yeast RSP5, P39940 (P39940 whole entry): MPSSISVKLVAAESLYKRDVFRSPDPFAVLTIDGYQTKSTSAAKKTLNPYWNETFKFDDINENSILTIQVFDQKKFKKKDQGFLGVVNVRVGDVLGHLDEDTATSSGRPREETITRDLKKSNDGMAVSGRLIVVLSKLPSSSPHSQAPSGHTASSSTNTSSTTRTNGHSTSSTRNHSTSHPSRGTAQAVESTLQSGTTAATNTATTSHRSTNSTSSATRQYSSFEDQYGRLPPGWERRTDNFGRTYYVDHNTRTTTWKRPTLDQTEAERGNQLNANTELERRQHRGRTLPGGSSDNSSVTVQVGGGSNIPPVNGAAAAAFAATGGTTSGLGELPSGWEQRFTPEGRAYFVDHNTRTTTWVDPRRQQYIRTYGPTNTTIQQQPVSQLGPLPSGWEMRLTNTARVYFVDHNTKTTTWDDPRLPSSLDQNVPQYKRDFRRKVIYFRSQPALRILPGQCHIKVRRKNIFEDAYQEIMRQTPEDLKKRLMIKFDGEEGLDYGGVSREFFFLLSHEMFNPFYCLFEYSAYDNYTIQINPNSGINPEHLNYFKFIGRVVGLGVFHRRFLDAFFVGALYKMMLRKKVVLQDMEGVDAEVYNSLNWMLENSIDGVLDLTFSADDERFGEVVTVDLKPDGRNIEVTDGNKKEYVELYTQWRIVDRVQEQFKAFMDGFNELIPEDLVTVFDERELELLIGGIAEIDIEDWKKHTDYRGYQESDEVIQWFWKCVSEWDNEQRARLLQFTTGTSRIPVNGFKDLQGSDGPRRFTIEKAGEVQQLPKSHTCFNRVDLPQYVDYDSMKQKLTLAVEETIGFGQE
row,effect of a mutation on the interaction,Variant
1,decreasing interaction,P679A;Y681A
2,decreasing interaction,P690A;Y692A
